Reference: patent publication US20100310561A1, “NATRIURETIC FUSION PROTEINS” (BOEHRINGER INGELHEIM INTERNATIONAL GMBH, priority 2007, published 2010)

Test: Single-dose rat PK study of recombinant ANP-Fc fusions, i.v. or s.c.
Format: in vivo
Conditions: 1 mg/kg, Sprague Dawley rats
Protocol: The pharamacokinetics of the recombinant ANP-Fc fusion candidates were assessed by running a single-dose rat PK study. Single bolus injections of ANP-Fc fusions at 1 mg/kg dose were given to Sprague Dawley rats via i.v. or s.c. injection. Vehicle control PBS injections were given to a control group of animals. […] Animals were sampled for 1 week with a contingency group going up to 3 weeks. After sampling the animals were quarantined and the plasma samples with EDTA and Aprotinin are assayed in a sandwich ELISA where the ANP is captured with a monoclonal antibody and detected with an anti-human Fc antibody. The ELISA has a sensitivity of 1 ng/mL and may be used to detect ANP-Fc fusion proteins in rat plasma. This rat PK data permits the comparison of the in vivo half-life of the ANP-Fc fusion proteins to that of the native ligand, hANP28.

| Molecule | half-life (T½) (intravenous bolus) [h] | mean resonance time (MRT) (intravenous bolus) [h] | volume of distribution (Vss) (intravenous bolus) [L/kg] | area under the curve (AUC) (subcutaneous) [ng·h/mL] | half-life (T½) (subcutaneous) [h] | maximum serum concentration obtained (Cmax) (subcutaneous) [ng/mL] | percent bioavailability (% F) (subcutaneous) [%] |
| --- | --- | --- | --- | --- | --- | --- | --- |
| ANPXY-L6-Fc2AB (protein, Synthesized ANPxy-L6-Fc2ab) SLRRSSCFGGRMDRIGAQSGLGCNSFRYGGSGGSGGSGGSGGSGGSGGCPPCPAPPVAGPSVFLFPPKPKDTLMISRTPEVTCVVVDVSHEDPEVQFNWYVDGVEVHNAKTKPREEQFNSTFRVVSVLTVVHQDWLNGKEYKCKVSNKGLPAPIEKTISKTKGQPREPQVYTLPPSREEMTKNQVSLTCLVKGFYPSDIAVEWESNGQPENNYKTTPPMLDSDGSFFLYSKLTVDKSRWQQGNVFSCSVMHEALHNHYTQKSLSLSPGK | 11.7 | 3.08 | 0.76 | 2202 | 20.6 | 44 | 26.3 |
| ANPXY-L4-Fc2AB (protein, Synthesized ANPxy-L4-Fc2ab (protein)) SLRRSSCFGGRMDRIGAQSGLGCNSFRYGGSGGSGGSGGCPPCPAPPVAGPSVFLFPPKPKDTLMISRTPEVTCVVVDVSHEDPEVQFNWYVDGVEVHNAKTKPREEQFNSTFRVVSVLTVVHQDWLNGKEYKCKVSNKGLPAPIEKTISKTKGQPREPQVYTLPPSREEMTKNQVSLTCLVKGFYPSDIAVEWESNGQPENNYKTTPPMLDSDGSFFLYSKLTVDKSRWQQGNVFSCSVMHEALHNHYTQKSLSLSPGK | 16.8 | 3.91 | 0.61 | 2671 | 23.1 | 53.5 | 20.6 |
